These results are taken from the supplement of paper PMC10567573.

B1: CLCN6 (parent)
chain: VGEIVGIITRHNLTYEFLQARLRQ
B2: FCHSD1 (parent)
chain: LQEPGVFSPTPPQQFQPAGTDQVC
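Also: lentivirally expressed fusions sorted by FACS into six bins by GFP to DsRed ratio, PSI derived from sequencing read proportions per bin multiplied by bin number.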

The variants in the first series derive from B1. In words: protein stability index of a GFP-peptide fusion (GPS, HEK-293T) (PSI 1-6); higher = more stable. To be noted: c terminus: a fixed tail appended.
For VDEIVGIITRHNLTYEFLQARLRQ [G2D], the protein stability index came to 2.23.

As for VTEIVGIITRHNLTYEFLQARLRQ [G2T], the protein stability index came out at 2.6.

For the variant VKEIVGIITRHNLTYEFLQARLRQ [G2K], the protein stability index worked out at 2.53.

For the variant VWEIVGIITRHNLTYEFLQARLRQ [G2W], the protein stability index worked out at 3.19.

As for VMEIVGIITRHNLTYEFLQARLRQ [G2M], the protein stability index worked out at 1.09.

Take VGEFVGIITRHNLTYEFLQARLRQ [I4F]: the protein stability index is 1.52.

Turning to VGEYVGIITRHNLTYEFLQARLRQ [I4Y], the protein stability index was 2.53.

Take VGEDVGIITRHNLTYEFLQARLRQ [I4D]: the protein stability index was found to be 2.66.

For VGEGVGIITRHNLTYEFLQARLRQ [I4G], the protein stability index turned out to be 2.33.

Regarding VGEIVGIITRHNLTYEFNQARLRQ [L18N], the protein stability index was 1.6.

Consider VGEIVGIITRHNLTYEFIQARLRQ [L18I], for which the protein stability index was 2.62.

VGEIVGIITRHNLTYEFMQARLRQ [L18M]: the protein stability index turned out to be 2.33.

As to VGEIVGIITRHNLTYEFDQARLRQ [L18D], the protein stability index came to 2.26.

With VGEIVGIITRHNLTYEFLQQRLRQ [A20Q], the protein stability index was 2.04.

For the variant VGEIGGIITRHNLTYEFLQARLRQ [V5G], the protein stability index amounted to 2.29.

In the case of VGEIQGIITRHNLTYEFLQARLRQ [V5Q], the protein stability index was determined as 1.37.

With VGEINGIITRHNLTYEFLQARLRQ [V5N], the protein stability index was determined as 1.75.

In the case of VGEIRGIITRHNLTYEFLQARLRQ [V5R], the protein stability index is 2.55.

As for VGEIVGIITRHNLTYEFLSARLRQ [Q19S], the protein stability index is 2.49.

For the variant VGEIVGIITRHNLTYEFLIARLRQ [Q19I], the protein stability index is 3.35.

For the variant VGEIVGIITKHNLTYEFLQARLRQ [R10K], the protein stability index was 2.19.

Turning to VGEIVGIITDHNLTYEFLQARLRQ [R10D], the protein stability index was 2.73.

For VGEIVGIITYHNLTYEFLQARLRQ [R10Y], the protein stability index came out at 1.93.

On to AGEIVGIITRHNLTYEFLQARLRQ [V1A], for which the protein stability index came to 1.44.

Consider HGEIVGIITRHNLTYEFLQARLRQ [V1H], for which the protein stability index was found to be 2.82.

With RGEIVGIITRHNLTYEFLQARLRQ [V1R], the protein stability index was 1.58.

Regarding QGEIVGIITRHNLTYEFLQARLRQ [V1Q], the protein stability index was 2.08.

With DGEIVGIITRHNLTYEFLQARLRQ [V1D], the protein stability index was 2.41.

For the variant LGEIVGIITRHNLTYEFLQARLRQ [V1L], the protein stability index worked out at 1.76.

Turning to CGEIVGIITRHNLTYEFLQARLRQ [V1C], the protein stability index was 2.26.

Take WGEIVGIITRHNLTYEFLQARLRQ [V1W]: the protein stability index worked out at 2.47.

For VGEIVGIITRHNLTYEFLQARLRN [Q24N], the protein stability index was 2.8.

As to VGEIVGIITRHNLTYEFLQARLRC [Q24C], the protein stability index was 3.27.

Turning to VGEIVGIITRHNLTYEFLQARLRR [Q24R], the protein stability index came to 1.88.

In the case of VGEIVGIITRHKLTYEFLQARLRQ [N12K], the protein stability index amounted to 2.04.

On to VGEIVGIITRHGLTYEFLQARLRQ [N12G], for which the protein stability index was determined as 5.11.

On to VGEIVGIITRHCLTYEFLQARLRQ [N12C], for which the protein stability index came to 2.21.

Turning to VGEIVGIITRHQLTYEFLQARLRQ [N12Q], the protein stability index worked out at 4.

As to VGEIVGIITRHNLYYEFLQARLRQ [T14Y], the protein stability index was 3.07.

Consider VGEIVGIITRHNLLYEFLQARLRQ [T14L], for which the protein stability index worked out at 2.29.

For the variant VGEIVGIITRHNLNYEFLQARLRQ [T14N], the protein stability index worked out at 2.03.

With VGEIVGIITRHNLTVEFLQARLRQ [Y15V], the protein stability index was found to be 1.63.

Regarding VGEIVGIITRHNLTPEFLQARLRQ [Y15P], the protein stability index stood at 1.62.

For VGEIVGIITRHNLTAEFLQARLRQ [Y15A], the protein stability index is 2.07.

On to VGEIVGIITRHNLTSEFLQARLRQ [Y15S], for which the protein stability index was 1.83.

Take VGEIVGIITRHNLTQEFLQARLRQ [Y15Q]: the protein stability index worked out at 2.38.

VGEIVGIITRHNATYEFLQARLRQ [L13A]: the protein stability index was determined as 1.63.

With VGEIVGIITRHNFTYEFLQARLRQ [L13F], the protein stability index stood at 2.15.

Consider VGEIVGIITRHNPTYEFLQARLRQ [L13P], for which the protein stability index came to 1.94.

For the variant VGEIVGIITRHNMTYEFLQARLRQ [L13M], the protein stability index is 1.86.

For the variant VGEIVGIITRHNITYEFLQARLRQ [L13I], the protein stability index is 3.13.

In the case of VGEIVGIITRHNLTYEFLQARMRQ [L22M], the protein stability index stood at 2.37.

VGEIVGIITRHNLTYEFLQARRRQ [L22R]: the protein stability index is 2.47.

Turning to VGEIVGIITRHNLTYEFLQARPRQ [L22P], the protein stability index came out at 1.53.

For VGEIVGIITRHNLTYEFLQARQRQ [L22Q], the protein stability index is 2.07.

For VGEIVGIITRHNLTYEFLQARKRQ [L22K], the protein stability index came out at 1.93.

On to VGEIVGIITRHNLTYEILQARLRQ [F17I], for which the protein stability index turned out to be 2.02.

VGEIVGIITRHNLTYECLQARLRQ [F17C]: the protein stability index turned out to be 1.8.

Turning to VGEIVGIITRHNLTYEPLQARLRQ [F17P], the protein stability index turned out to be 2.11.

Consider VGEIVGIITRHNLTYETLQARLRQ [F17T], for which the protein stability index worked out at 1.87.

With VGEIVGIITRHNLTYESLQARLRQ [F17S], the protein stability index turned out to be 2.71.

As to VGEIVGIITRVNLTYEFLQARLRQ [H11V], the protein stability index was 2.32.

As for VGEIVGIITRGNLTYEFLQARLRQ [H11G], the protein stability index turned out to be 1.76.

Turning to VGEIVGIITRNNLTYEFLQARLRQ [H11N], the protein stability index turned out to be 4.18.

Consider VGWIVGIITRHNLTYEFLQARLRQ [E3W], for which the protein stability index was 2.42.

Consider VGHIVGIITRHNLTYEFLQARLRQ [E3H], for which the protein stability index was determined as 2.38.

In the case of VGPIVGIITRHNLTYEFLQARLRQ [E3P], the protein stability index turned out to be 3.11.

For VGVIVGIITRHNLTYEFLQARLRQ [E3V], the protein stability index was determined as 2.62.

Regarding VGFIVGIITRHNLTYEFLQARLRQ [E3F], the protein stability index is 1.43.

Turning to VGEIVGIITRHNLTYEFLQAYLRQ [R21Y], the protein stability index was determined as 1.86.

In the case of VGEIVGIITRHNLTYEFLQAWLRQ [R21W], the protein stability index worked out at 2.19.

Take VGEIVGIITRHNLTYEFLQATLRQ [R21T]: the protein stability index stood at 2.69.

As for VGEIVGIITRHNLTYRFLQARLRQ [E16R], the protein stability index turned out to be 2.46.

With VGEIVGEITRHNLTYEFLQARLRQ [I7E], the protein stability index turned out to be 2.07.

On to VGEIVGYITRHNLTYEFLQARLRQ [I7Y], for which the protein stability index came out at 3.15.

As for VGEIVGDITRHNLTYEFLQARLRQ [I7D], the protein stability index worked out at 2.38.

Take VGEIVGTITRHNLTYEFLQARLRQ [I7T]: the protein stability index turned out to be 1.73.

Turning to VGEIVGNITRHNLTYEFLQARLRQ [I7N], the protein stability index turned out to be 2.18.

As to VGEIVGGITRHNLTYEFLQARLRQ [I7G], the protein stability index is 2.44.

Turning to VGEIVGPITRHNLTYEFLQARLRQ [I7P], the protein stability index stood at 2.56.

Turning to VGEIVGHITRHNLTYEFLQARLRQ [I7H], the protein stability index was 2.05.

For VGEIVGQITRHNLTYEFLQARLRQ [I7Q], the protein stability index came to 2.72.

With VGEIVGIINRHNLTYEFLQARLRQ [T9N], the protein stability index was 2.88.

As to VGEIVGIIRRHNLTYEFLQARLRQ [T9R], the protein stability index stood at 1.4.

As to VGEIVGIIFRHNLTYEFLQARLRQ [T9F], the protein stability index amounted to 2.35.

In the case of VGEIVGIISRHNLTYEFLQARLRQ [T9S], the protein stability index was 2.77.

Consider VGEIVGIHTRHNLTYEFLQARLRQ [I8H], for which the protein stability index amounted to 1.79.

Take VGEIVGIGTRHNLTYEFLQARLRQ [I8G]: the protein stability index was found to be 2.2.

As for VGEIVGIETRHNLTYEFLQARLRQ [I8E], the protein stability index worked out at 3.29.

For VGEIVGINTRHNLTYEFLQARLRQ [I8N], the protein stability index came to 3.2.

On to VGEIVGIITRHNLTYEFLQARLHQ [R23H], for which the protein stability index came to 1.73.

Turning to VGEIVGIITRHNLTYEFLQARLQQ [R23Q], the protein stability index worked out at 1.69.

Variants of B2 are the subject of a further series. Described as above. To be noted: c terminus: a fixed tail appended.
For LQEPGVFSDTPPQQFQPAGTDQVC [P9D], the protein stability index was determined as 4.69.

Regarding LQEPGVFSNTPPQQFQPAGTDQVC [P9N], the protein stability index was 4.04.
